From patent publication US20040203128

What was measured:
[1] = test system: GST-2E11 recombinant protein (fusion between a KCNQ2-15b polypeptide comprising exons 13, 14 and 15b and GST)
[2] = test system: GST protein (negative control, from pGEX2TK) [GST: P08515]
Sequence of GST protein (negative control, from pGEX2TK) [GST: P08515] (P08515 whole entry): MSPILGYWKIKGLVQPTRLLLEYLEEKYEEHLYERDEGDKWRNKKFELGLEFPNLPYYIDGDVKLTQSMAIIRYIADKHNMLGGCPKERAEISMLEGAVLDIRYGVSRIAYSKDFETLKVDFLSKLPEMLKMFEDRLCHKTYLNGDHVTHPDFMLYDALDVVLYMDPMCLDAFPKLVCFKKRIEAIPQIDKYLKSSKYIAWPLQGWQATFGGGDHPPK

Sequence of GST-2E11 recombinant protein (fusion between a KCNQ2-15b polypeptide comprising exons 13, 14 and 15b and GST) (chain, as listed by the source): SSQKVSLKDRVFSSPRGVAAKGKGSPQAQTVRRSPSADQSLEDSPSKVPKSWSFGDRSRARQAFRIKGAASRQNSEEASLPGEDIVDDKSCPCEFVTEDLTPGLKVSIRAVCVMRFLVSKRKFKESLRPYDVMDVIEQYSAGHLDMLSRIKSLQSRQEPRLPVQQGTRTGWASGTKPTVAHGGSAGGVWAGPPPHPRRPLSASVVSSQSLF

PP2A phosphatase in whole cell extracts of the human glioblastoma, astrocytoma cell line HTB-14
in vitro dephosphorylation, loss of the 32P band, with or without okadaic acid [1]: In the line loaded with GST-2E11 fusion proteins incubated in the presence of HTB-14 cell extracts, the band had an extremely weaker intensity

Protein Kinase A Catalytic Subunit (PKA from bovine heart, Sigma)
in vitro phosphorylation, 32P autoradiography after SDS-PAGE [1]: Thus the GST-2E11 protein is phosphorylated by GSK-3β and PKA in vitro
in vitro phosphorylation, 32P autoradiography after SDS-PAGE [2]: No bands appeared in the three lines corresponding to the negative controls

recombinant GSK-3β kinase (New England Biolabs)
in vitro phosphorylation, 32P autoradiography after SDS-PAGE [1]: Thus the GST-2E11 protein is phosphorylated by GSK-3β and PKA in vitro
in vitro phosphorylation, 32P autoradiography after SDS-PAGE [2]: No bands appeared in the three lines corresponding to the negative controls
